Measured values published in US20260191981A1 (ARROWHEAD PHARMACEUTICALS, published 2026).
Positions count from the first letter of the chain named.

B1: Fab0061 (Fab, V domains shown)
VH: EVQLVESGGGLVQPGGSLRLSCATSGYTFTSYWMHWVRQAPGKGLEWVAEINPTNGRVNYIEKFKSRITLSVDKSKSTVYLQMNSLRAEDTAVYYCARGTRAYHYWGQGTLVTVSS
VL: DIQLTQSPSSLSASVGDRVTITCRASDGLYSNLAWYQQKPGKAPKLLIYDATKLASGVPSRFSGSGSGTDYTLTISSLQPEDFATYYCQHFWGTPLTFGQGTKVEIKR
B2: Fab0060 (Fab, V domains shown)
VH: B1 VH with M34V, V58T
VL: B1 VL
B3: Fab0062 (Fab, V domains shown)
VH: B1 VH
VL: B1 VL with T52F, K53N
B4: Fab0063 (Fab, V domains shown)
VH: B1 VH
VL: B1 VL with K53R
B5: Fab0064 (Fab, V domains shown)
VH: B1 VH
VL: B1 VL with T52K, K53N
B6: Fab0065 (Fab, V domains shown)
VH: B1 VH with M34V, V58S
VL: B1 VL with G28N, S31R
B7: Fab0066 (Fab, V domains shown)
VH: B1 VH with M34V
VL: B1 VL with T52F, K53N
B8: Fab0067 (Fab, V domains shown)
VH: B1 VH with M34V, V58T
VL: B1 VL with G28N, S31R
B9: Fab0068 (Fab, V domains shown)
VH: B1 VH with M34V
VL: B1 VL
B10: Fab0069 (Fab, V domains shown)
VH: B1 VH with M34V, V58S
VL: B1 VL
B11: Fab0070 (Fab, V domains shown)
VH: B1 VH with Y27F, V58T
VL: B1 VL with G28K, K53L
B12: Fab0071 (Fab, V domains shown)
VH: B1 VH with T30N, V58T
VL: B1 VL with T52R, K53N
B13: Fab0072 (Fab, V domains shown)
VH: B1 VH with T30N, V58F
VL: B1 VL with G28N, S31R, T52R, K53N
B14: Fab0073 (Fab, V domains shown)
VH: B1 VH with T30K, V58T
VL: B1 VL with G28N, S31R
B15: Fab0074 (Fab, V domains shown)
VH: B1 VH with T30K, V58T
VL: B1 VL with T52K, K53N

target: T1, human transferrin receptor 1 (hTfR1) (human, UniProt P02786 89-760, limits assumed); assay: competition ELISA, Fab
T1 construct: The selections used the biotinylated ECD domain of hTfR1
T1 sequence (P02786 89-760 limits assumed): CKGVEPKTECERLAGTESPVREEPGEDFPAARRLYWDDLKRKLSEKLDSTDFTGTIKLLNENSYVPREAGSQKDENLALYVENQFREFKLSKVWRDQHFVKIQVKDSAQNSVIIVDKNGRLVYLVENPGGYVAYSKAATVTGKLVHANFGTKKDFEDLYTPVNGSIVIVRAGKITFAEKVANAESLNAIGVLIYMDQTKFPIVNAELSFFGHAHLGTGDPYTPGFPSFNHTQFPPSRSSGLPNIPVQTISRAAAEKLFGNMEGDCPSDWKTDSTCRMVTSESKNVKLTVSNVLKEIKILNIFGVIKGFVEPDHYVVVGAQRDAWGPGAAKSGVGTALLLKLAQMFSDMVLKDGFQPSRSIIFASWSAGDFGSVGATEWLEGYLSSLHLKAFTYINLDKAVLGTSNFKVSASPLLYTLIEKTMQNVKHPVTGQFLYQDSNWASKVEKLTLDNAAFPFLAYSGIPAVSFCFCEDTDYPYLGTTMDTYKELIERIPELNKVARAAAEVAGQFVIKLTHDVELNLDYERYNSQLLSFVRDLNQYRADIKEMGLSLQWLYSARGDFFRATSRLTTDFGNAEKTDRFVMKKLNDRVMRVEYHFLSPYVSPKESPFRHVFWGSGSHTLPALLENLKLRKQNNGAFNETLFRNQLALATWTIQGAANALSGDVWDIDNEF

Row | Binder | Kd [nM]
1 | B1 | 0.95
2 | B2 | 0.81
3 | B3 | 1.1
4 | B4 | 0.67
5 | B5 | 0.67
6 | B6 | 0.33
7 | B7 | 0.91
8 | B8 | 0.52
9 | B9 | 0.84
10 | B10 | 0.75
11 | B11 | 1.11
12 | B12 | 0.43
13 | B13 | 0.19
14 | B14 | 0.32
15 | B15 | 0.46

target: T2, cynomolgus monkey transferrin receptor 1 (cTfR1) (cynomolgus monkey, UniProt H9EXL1 89-760 (rhesus entry)); assay: competition ELISA, Fab
T2 construct: The ELISA against cTfR1 is not described in the text
T2 sequence (chain, as listed by the source): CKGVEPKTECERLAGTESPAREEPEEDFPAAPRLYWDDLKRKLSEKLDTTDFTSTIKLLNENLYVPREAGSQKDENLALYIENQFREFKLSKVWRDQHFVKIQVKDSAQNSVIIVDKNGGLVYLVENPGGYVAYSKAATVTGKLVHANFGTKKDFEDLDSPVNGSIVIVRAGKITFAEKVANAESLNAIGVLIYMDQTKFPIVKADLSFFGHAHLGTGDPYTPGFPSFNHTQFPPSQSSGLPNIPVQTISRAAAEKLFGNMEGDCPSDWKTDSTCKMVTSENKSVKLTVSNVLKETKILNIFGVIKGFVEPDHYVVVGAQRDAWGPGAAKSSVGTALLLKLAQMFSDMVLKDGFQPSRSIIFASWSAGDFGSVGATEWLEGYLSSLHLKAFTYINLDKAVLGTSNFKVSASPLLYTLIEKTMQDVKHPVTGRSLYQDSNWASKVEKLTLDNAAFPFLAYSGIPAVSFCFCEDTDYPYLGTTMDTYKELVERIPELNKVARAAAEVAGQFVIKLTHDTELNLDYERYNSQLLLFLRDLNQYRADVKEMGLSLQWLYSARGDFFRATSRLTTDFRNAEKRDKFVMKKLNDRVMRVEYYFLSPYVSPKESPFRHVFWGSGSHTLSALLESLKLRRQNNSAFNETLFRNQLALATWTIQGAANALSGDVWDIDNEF

Row | Binder | Kd [nM]
16 | B1 | 5.15
17 | B2 | 4.58
18 | B3 | 9.14
19 | B4 | 5.57
20 | B5 | 5.04
21 | B6 | 2.87
22 | B7 | 9.4
23 | B8 | 3.02
24 | B9 | 7.37
25 | B10 | 4.68
26 | B11 | 15.3
27 | B12 | 53.3
28 | B13 | 11.9
29 | B14 | 8.68
30 | B15 | 17.5

target: T1, human transferrin receptor 1 (hTfR1); assay: competition phage ELISA (phage-displayed Fab)

Row | Binder | Kd [nM]
31 | B1 | 0.49
32 | B2 | 0.49
33 | B3 | 0.65
34 | B4 | 0.48
35 | B5 | 0.34
36 | B6 | 0.26
37 | B7 | 0.87
38 | B8 | 0.35
39 | B9 | 0.43
40 | B10 | 0.35
41 | B11 | 0.49
42 | B12 | 0.45
43 | B13 | 0.19
44 | B14 | 0.29
45 | B15 | 0.46

target: T2, cynomolgus monkey transferrin receptor …; assay: competition phage ELISA (phage-displayed Fab)

Row | Binder | Kd [nM]
46 | B1 | 1.75
47 | B2 | 1.56
48 | B3 | 3.48
49 | B4 | 2.63
50 | B5 | 2.02
51 | B6 | 0.57
52 | B7 | 1.34
53 | B8 | 0.95
54 | B9 | 1.75
55 | B10 | 1.29
56 | B11 | 1.39
57 | B12 | 0.74
58 | B13 | 1.18
59 | B14 | 1.95
60 | B15 | 2.14

target: T3, his-tagged hTfR1 (Acro Biosystems p/n CD1-H5243) (human, UniProt P02786 89-760); assay: SPR, Biacore X100, His-tagged TfR1 captured by anti-His
T3 construct: Bought reagent of the SPR assay
T3 sequence (P02786 89-760 limits assumed): as the sequence (P02786 89-760 limits assumed) above
Procedure: Samples were analyzed via Surface Plasmon Resonance (SPR) to determine kinetics against human transferrin receptor 1 (hTfR1). Briefly, a Biacore X100 (Cytiva) was used for SPR measurements using a CM5 chip (carboxymethylated dextran surface, Cytiva p/n BR100399) with anti-histidine antibody irreversibly immobilized on the surface of both flow cells for the reversible capture of his-tagged hTfR1 (Acro Biosystems p/n CD1-H5243). The anti-histidine antibody was irreversibly immobilized via amine coupling using Cytiva provided Amine Coupling Kit (p/n BR100050) and His Capture Kit (p/n 28995056). […] Sample diluent was prepared in house and is composed of 10 mM HEPES buffer pH 7.4, 150 mM NaCl, 3 mM EDTA, and 0.05% Tween 20. Cytiva caps and vials compatible for Biacore X100 are used for sample analysis. Each analysis cycle consists of a capture step followed by sample or blank injection, and finally a regeneration step that removes any sample and hTfR1 on the sensor surface. The capture step was performed at 5 μL/min with a contact time of 24 seconds over the active flow cell only, followed by a fluidics wash with 0.1% Tween 20. Generally, 2 μg/mL hTfR1 is a sufficient concentration to observe adequate hTfR1 captured consistently between cycles. Sample or buffer was injected at 30 μL/min with a contact time of 180 seconds and a dissociation time of 180 seconds followed by a fluidics wash with 0.1% Tween 20. A 10 mM glycine solution at pH 1.5 (provided in His Capture Kit) was used for regeneration at 30 μL/min with a 60 second contact time. A cycle was performed for each sample concentration analyzed along with one cycle repeating one concentration for variability evaluation and 2-3 buffer cycles. Results were analyzed in Biacore Evaluation Software. Buffer cycles were averaged and subtracted from sample injections prior to kinetic fitting. A monovalent or kinetic fit was specified as relevant for the sample analyzed. Accuracy of the fit was evaluated and data points are excluded as applicable. […]

Row | Binder | Kd [nM] | koff [s⁻¹] | kon [M⁻¹ s⁻¹]
61 | B1 | 0.708 | 0.00101 | 1.42e+06
62 | B2 | 0.907 | 0.00111 | 1.22e+06
63 | B3 | 0.993 | 0.00117 | 1.18e+06
64 | B4 | 0.598 | 0.00105 | 1.75e+06
65 | B5 | 0.754 | 0.00111 | 1.47e+06
66 | B6 | 0.413 | 0.00071 | 1.72e+06
67 | B7 | 1.41 | 0.00139 | 985000
68 | B8 | 0.543 | 0.000804 | 1.48e+06
69 | B9 | 0.97 | 0.00113 | 1.17e+06
70 | B10 | 0.783 | 0.00108 | 1.38e+06
71 | B11 | 0.923 | 0.0012 | 1.3e+06
72 | B12 | 0.553 | 0.000865 | 1.56e+06
73 | B13 | 0.331 | 0.000614 | 1.86e+06
74 | B14 | 0.351 | 0.00065 | 1.85e+06
75 | B15 | 0.471 | 0.000782 | 1.66e+06

target: T4, his-tagged cTfR1 (Acro Biosystems p/n TFR-C524a) (cynomolgus monkey, UniProt H9EXL1 89-760 (rhesus entry)); assay: as above
T4 construct: Bought reagent of the SPR assay
T4 sequence (chain, as listed by the source): as the sequence (chain, as listed by the source) above
Procedure: Samples were analyzed via Surface Plasmon Resonance (SPR) to determine kinetics against cynomolgus monkey transferrin receptor 1 (cTfR1). Briefly, a Biacore X100 (Cytiva) was used for SPR measurements using a CM5 chip (carboxymethylated dextran surface, Cytiva p/n BR100399) with anti-histidine antibody irreversibly immobilized on the surface of both flow cells for the reversible capture of his-tagged cTfR1 (Acro Biosystems p/n TFR-C524a). The anti-histidine antibody was irreversibly immobilized via amine coupling using Cytiva provided Amine Coupling Kit (p/n BR100050) and His Capture Kit (p/n 28995056). […] Sample diluent was prepared in house and is composed of 10 mM HEPES buffer pH 7.4, 150 mM NaCl, 3 mM EDTA, and 0.05% Tween 20. Cytiva caps and vials compatible for Biacore X₁₀₀ were used for sample analysis. Each analysis cycle consists of a capture step followed by sample or blank injection, and finally a regeneration step that removes any sample and cTfR1 on the sensor surface. The capture step was performed at 5 μL/min with a contact time of 24 seconds over the active flow cell only, followed by a fluidics wash with 0.1% Tween 20. Generally, 2 μg/mL hTfR1 was a sufficient concentration to observe adequate hTfR1 captured consistently between cycles. Sample or buffer was injected at 30 μL/min with a contact time of 180 seconds and dissociation time of 180 seconds followed by a fluidics wash with 0.1% Tween 20. A 10 mM glycine solution at pH 1.5 (provided in His Capture Kit) was used for regeneration at 30 μL/min with a 60 second contact time. A cycle was performed for each sample concentration analyzed along with one cycle repeating one concentration for variability evaluation and 2-3 buffer cycles. Results were analyzed in Biacore Evaluation Software. Buffer cycles were averaged and subtracted from sample injections prior to kinetic fitting. A monovalent or kinetic fit was specified as relevant for the sample analyzed. Accuracy of the fit is evaluated and data points are excluded as applicable.

Row | Binder | Kd [nM] | koff [s⁻¹] | kon [M⁻¹ s⁻¹]
76 | B1 | 1.75 | 0.0037 | 2.11e+06
77 | B2 | 2.71 | 0.00357 | 1.32e+06
78 | B3 | 3.22 | 0.00515 | 1.6e+06
79 | B4 | 2.72 | 0.00446 | 1.64e+06
80 | B5 | 2.45 | 0.00367 | 1.5e+06
81 | B6 | 1.45 | 0.00259 | 1.79e+06
82 | B7 | 4.35 | 0.00509 | 1.17e+06
83 | B8 | 1.75 | 0.00328 | 1.87e+06
84 | B9 | 2.34 | 0.00366 | 1.57e+06
85 | B10 | 2.72 | 0.00375 | 1.38e+06
86 | B11 | 4.52 | 0.00582 | 1.29e+06
87 | B12 | 8.13 | 0.0112 | 1.38e+06
88 | B13 | 3.88 | 0.0108 | 2.78e+06
89 | B14 | 2.85 | 0.00677 | 2.38e+06
90 | B15 | 4.31 | 0.0105 | 2.44e+06
